Reference: patent US20230059341A1

Molecular target: Neonatal Fc Receptor (FcRn) (UniProt P55899)
Assay: FcRn binding assay, BIACORE (SPR)

Kd: 2340 nM
Substance: Dostarlimab, base degraded, pH 9.0, 40° C., 1 week (antibody)
